For one substance, Kd results are on record in paper PMC10210826.

Broadly, the Kd is the free concentration of one partner at which half of the binding sites on the other are occupied at equilibrium, for simple one-to-one binding.

The experiment addresses N-terminal biotinylated tetradecapeptide of the C-terminal portion of the SARS-CoV-2 E protein (SARS-CoV-2). Briefly: SPR.

On to “PDZ2 domain of human ZO1 (ZO1-PDZ2 domain) (domain or fragment)”, for which the Kd was determined as 2100 nM.
